In patent publication US20180155451A1 (published 2018):
Numbering of substitutions follows the chain as printed. In names and notes the source's numbering stands.

B1: H240-Kn149/H240-Hl068/L73-k0 (antibody, human IgG1, kappa)
heavy 1: QDQLVQSGAEVKKPGASVKVSCKASGFNIKDTYIQWVRQAPGQGLEWMGRIDPLRKQTKYREKFEGRVTITADTSTNTAYMELSSLRSEDTAVYYCVRSGREFDYWGQGTLVTVSSASTKGPSVFPLAPSSKSTSGGTAALGCLVKDYFPEPVTVSWNSGALTSGVHTFPAVLQSSGLYSLSSVVTVPSSSLGTQTYICNVNHKPSNTKVDKKVEPKSCDKTHTCPPCPAPEYYWGPMVFLFPPKPKDTLMISRTPEVTCVVVDVSDEDPEVKFNWYVDGVEVHNAKTKPREEQYNATYRVVSVLTVLHQDWLNGKEYKCKVSNKDWPAPIELTISKAKGQPREPQVCTLPPSRDELTKNQVSLWCLVKGFYPSDIAVEWESNGQPENNYKTTPPVLDSDGSFFLYSKLTVDKSRWQQGNVFSCSVMHEALHNHYTQKSLSLSP
heavy 2: QDQLVQSGAEVKKPGASVKVSCKASGFNIKDTYIQWVRQAPGQGLEWMGRIDPLRKQTKYREKFEGRVTITADTSTNTAYMELSSLRSEDTAVYYCVRSGREFDYWGQGTLVTVSSASTKGPSVFPLAPSSKSTSGGTAALGCLVKDYFPEPVTVSWNSGALTSGVHTFPAVLQSSGLYSLSSVVTVPSSSLGTQTYICNVNHKPSNTKVDKKVEPKSCDKTHTCPPCPAPELLGGPSVFLFPPKPKDTLMISRTPEVTCVVVDVSHEEPEVKFNWYVDGVEVHNAKTKPREEQYNSTYRVVSVLTVLHQDWLNGKEYKCKVSNDALPKPIEETISKAKGQPREPQVYTLPPSRCELTKNQVSLSCAVKGFYPSDIAVEWESNGQPENNYKTTPPVLDSDGSFFLVSKLTVDKSRWQQGNVFSCSVMHEALHNHYTQKSLSLSP
light: DIQMTQSPSSLSASVGDRVTITCRASQDIHKYIAWYQQKPGQAPRLLIQYTSTLQPGVPSRFSGSGSGTDYTFTISSLQPEDIATYYCLQYEQLRTFGGGTKVEIKRTVAAPSVFIFPPSDEQLKSGTASVVCLLNNFYPREAKVQWKVDNALQSGNSQESVTEQDSKDSTYSLSSTLTLSKADYEKHKVYACEVTHQGLSSPVTKSFNRGEC
notes: Heterodimerized anti-epiregulin IgG1 antibody; L328W and K334L introduced into H240-Kn120; also called H240-Kn149/H240-HI068/L73-k0
B2: H240-Kn178/H240-Hl068/L73-k0 (antibody, human IgG1, kappa)
heavy 1: B1 heavy 1 with W327L, L333Y
heavy 2: B1 heavy 2
light: B1 light
notes: Heterodimerized anti-epiregulin IgG1 antibody; K334Y introduced into H240-Kn120; also called H240-Kn178/H240-HI068/L73-k0
B3: H240-Kn172/H240-Hl177/L73-k0 (antibody, human IgG1, kappa)
heavy 1: B1 heavy 1 with W327L, I331M, L333K
heavy 2: B1 heavy 2 with I331Q
light: B1 light
notes: Heterodimerized anti-epiregulin IgG1 antibody; I332M introduced into H240-Kn120 and I332Q into H240-Hl068; also called H240-Kn172/H240-HI177/L73-k0
B4: H240-Kn173/H240-Hl068/L73-k0 (antibody, human IgG1, kappa)
heavy 1: B1 heavy 1 with W327L, I331Q, L333K
heavy 2: B1 heavy 2
light: B1 light
notes: Heterodimerized anti-epiregulin IgG1 antibody; I332Q introduced into H240-Kn120; also called H240-Kn173/H240-HI068/L73-k0
B5: H240-Kn166/H240-Hl170/L73-k0 (antibody, human IgG1, kappa)
heavy 1: B1 heavy 1 with W327A, L333K
heavy 2: B1 heavy 2 with L327A
light: B1 light
notes: Anti-epiregulin IgG1 antibody; L328A introduced into both H chains of H240-Kn120/H240-Hl068/L73-k0; also called H240-Kn166/H240-HI170/L73-k0
B6: GpH7-B3 variant T335_02A/GpL16-k0 (homodimerized antibody, Ho Ab) (antibody, human IgG1, kappa)
heavy: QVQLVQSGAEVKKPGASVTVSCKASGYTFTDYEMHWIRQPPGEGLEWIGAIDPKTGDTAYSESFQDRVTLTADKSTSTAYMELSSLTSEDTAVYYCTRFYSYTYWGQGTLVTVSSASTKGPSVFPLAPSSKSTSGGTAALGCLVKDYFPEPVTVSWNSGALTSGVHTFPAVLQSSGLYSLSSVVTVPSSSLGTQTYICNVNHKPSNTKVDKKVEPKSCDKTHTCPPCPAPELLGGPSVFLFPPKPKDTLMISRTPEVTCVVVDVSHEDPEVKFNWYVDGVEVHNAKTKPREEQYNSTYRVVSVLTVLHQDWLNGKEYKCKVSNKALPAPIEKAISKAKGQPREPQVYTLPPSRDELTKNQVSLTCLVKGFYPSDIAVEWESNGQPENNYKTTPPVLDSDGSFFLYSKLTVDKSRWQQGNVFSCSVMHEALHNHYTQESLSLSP
light: DIVMTQSPLSLPVTPGEPASISCQASESLVHSNRNTYLHWYLQKPGQSPQLLIYKVSNRFSGVPDRFSGSGSGTDFTLKISRVEAEDVGVYYCSQNTHVPPTFGQGTKVEIERTVAAPSVFIFPPSDEQLKSGTASVVCLLNNFYPREAKVQWKVDNALQSGNSQESVTEQDSKDSTYSLSSTLTLSKADYEKHKVYACEVTHQGLSSPVTKSFNRGEC
notes: Anti-glypican-3 IgG1 (G1d with K439E = GpH7-B3); the substitution stands in both H chains; also called Ho Ab T335A

The binders below were run against T1, FcgRIIIaF (human, UniProt P08637 17-208) (assay: SPR (Biacore); KD of H240-Kn120/H240-Hl068/L73-k0 divided by KD of this antibody).
T1 construct: extracellular domain; Soluble extracellular domain with C-terminal His tag; polymorphic site made after J. Clin. Invest; also called FcγRIIIa F; not shown: His tag attached to the C terminus
T1 sequence (P08637 17-208): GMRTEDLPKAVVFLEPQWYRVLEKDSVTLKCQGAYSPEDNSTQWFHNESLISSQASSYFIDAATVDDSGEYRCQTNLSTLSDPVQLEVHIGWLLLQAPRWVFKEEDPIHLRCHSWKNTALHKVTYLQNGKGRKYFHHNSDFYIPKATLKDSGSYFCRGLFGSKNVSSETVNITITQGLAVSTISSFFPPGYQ
Protocol: (§1) Analysis of interaction between obj ective antibody and the FcγR was carried out using Biacore T100 (GE Healthcare), Biacore T200, Biacore A100, and Biacore 4000.

| Binder | Relative KD |
| --- | --- |
| B1 | 1.5 |
| B2 | 1.6 |
| B3 | 1.1 |
| B4 | 1.2 |
| B5 | 0.5 |

These binders were tested against T2, FcgRIIaR (human, UniProt P12318 34-217) in the same assay as above.
T2 construct: extracellular domain; Soluble extracellular domain with C-terminal His tag; also called FcγRIIa R; FcγRIIa type R; not shown: His tag attached to the C terminus
T2 sequence (looked up): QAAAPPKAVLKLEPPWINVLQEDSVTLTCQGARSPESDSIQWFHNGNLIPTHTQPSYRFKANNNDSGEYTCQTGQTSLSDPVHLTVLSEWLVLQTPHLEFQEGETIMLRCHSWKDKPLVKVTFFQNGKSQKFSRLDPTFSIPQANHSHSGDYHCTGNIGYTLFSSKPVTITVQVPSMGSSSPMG
Protocol: as §1

| Binder | Relative KD |
| --- | --- |
| B1 | 1.1 |
| B2 | 0.8 |
| B3 | 0.7 |
| B4 | 0.5 |
| B5 | 0.6 |

The binders below were run against T3, FcgRIa (human, UniProt P12314 16-292) in the same assay as above.
T3 construct: extracellular domain; Soluble extracellular domain with C-terminal His tag, expressed in FreeStyle293 cells; also called FcγRIa; FcγRI; not shown: His tag attached to the C terminus
T3 sequence (P12314 16-292): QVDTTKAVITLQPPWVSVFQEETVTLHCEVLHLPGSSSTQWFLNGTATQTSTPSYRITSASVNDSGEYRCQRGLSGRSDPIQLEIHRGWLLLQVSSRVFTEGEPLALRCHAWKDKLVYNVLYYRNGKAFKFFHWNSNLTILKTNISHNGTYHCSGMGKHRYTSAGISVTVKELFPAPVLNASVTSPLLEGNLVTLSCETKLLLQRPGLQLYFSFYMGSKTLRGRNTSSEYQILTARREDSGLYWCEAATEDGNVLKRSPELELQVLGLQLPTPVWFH
Protocol: as §1

| Binder | Relative KD |
| --- | --- |
| B1 | 0.4 |
| B2 | 0.7 |
| B3 | 0.6 |
| B4 | 1.3 |
| B5 | 2.4 |

These binders were tested against T4, FcgRIIaH (human, UniProt P12318 34-217) in the same assay as above.
T4 construct: extracellular domain; Soluble extracellular domain with C-terminal His tag; also called FcγRIIa H; FcγRIIa type H; not shown: His tag attached to the C terminus
T4 sequence (looked up): T2 sequence (looked up) with R134H
Protocol: as §1

| Binder | Relative KD |
| --- | --- |
| B1 | 1.6 |
| B2 | 0.6 |
| B3 | 0.7 |
| B4 | 0.7 |
| B5 | 1.9 |

What follows are binders tested against T5, FcgRIIb (human, UniProt P31994 43-217) in the same assay as above.
T5 construct: extracellular domain; Soluble extracellular domain with C-terminal His tag; also called FcγRIIb; CD32B; not shown: His tag attached to the C terminus
T5 sequence (looked up): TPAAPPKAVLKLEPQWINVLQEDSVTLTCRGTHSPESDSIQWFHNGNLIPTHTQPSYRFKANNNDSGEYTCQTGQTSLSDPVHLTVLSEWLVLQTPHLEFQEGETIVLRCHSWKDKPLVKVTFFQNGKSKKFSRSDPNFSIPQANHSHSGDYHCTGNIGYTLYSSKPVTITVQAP
Protocol: as §1

| Binder | Relative KD |
| --- | --- |
| B1 | 1 |
| B2 | 1.4 |
| B3 | 0.9 |
| B4 | 0.5 |
| B5 | 0.8 |

What follows are binders tested against T6, FcgRIIIaV (human, UniProt P08637 17-208) in the same assay as above.
T6 construct: extracellular domain; Soluble extracellular domain with C-terminal His tag; polymorphic site made after J. Clin. Invest; also called FcγRIIIa V; not shown: His tag attached to the C terminus
T6 sequence (P08637 17-208 F176V limits assumed): as the sequence (P08637 17-208) above, with F160V counted along it
Protocol: as §1

| Binder | Relative KD |
| --- | --- |
| B1 | 1.1 |
| B2 | 1.9 |
| B3 | 1.6 |
| B4 | 0.9 |
| B5 | 0.4 |

These binders were tested against T7, FcγRIIa H (FcγRIIa, allotype with His at position 131), extracellular domain with C-terminal His tag (human, UniProt P12318 34-217) (assay: SPR (Biacore T100), antibody captured on antigen-peptide chip, FcγRIIa H as analyte; response per captured antibody relative to GpH7-B3/GpL16-k0).
T7 construct: extracellular domain; Soluble receptor expressed in FreeStyle293 cells and used as the analyte in Biacore; also called FcgRIIa H; FcγRIIa type H; not shown: His tag attached to the C terminus
T7 sequence (looked up): T2 sequence (looked up) with R134H
Protocol: Analysis of interaction between objective antibody and the FcγR was carried out using Biacore T100 (GE Healthcare). HBS-EP+ (GE Healthcare) was used as the running buffer, and the measurement temperature was set to 25° C. Chips produced by immobilizing the antigen peptide by the amine coupling method to a Series S Sencor Chip CM5 (GE Healthcare), or alternatively, chips produced by allowing preliminarily biotinylated antigen peptides to interact with and immobilize onto a Series S Sensor Chip SA (certified) (GE Healthcare) were used. Antibodies of interest were captured onto an antigen peptide-immobilized chip, and allowed to interact to each FcγR diluted with running buffer. To regenerate and repeatedly use the chip, the antibodies captured on the chip were washed off by reacting 10 mM glycine-HCl, pH 1.5.

| Binder | Ho/Con_2aH |
| --- | --- |
| B6 | 103 relative binding activity (control homodimerized antibody GpH7-B3/GpL16-k0 = 100) |

These binders were tested against T1, FcgRIIIaF (assay: SPR (Biacore), antibody captured, FcgR as analyte).
Protocol: (§2) Analysis of interaction between obj ective antibody and the FcγR was carried out using Biacore T100 (GE Healthcare), Biacore T200, Biacore A100, and Biacore 4000. HBS-EP+ (GE Healthcare) was used as the running buffer, and the measurement temperature was set to 25° C. Chips produced by immobilizing the antigen peptide by the amine coupling method to a Series S sensor Chip CM5 (GE Healthcare), chips produced by allowing preliminarily biotinylated antigen peptides to interact with and immobilize onto a Series S Sensor Chip SA (certified) (GE Healthcare), chips produced by immobilizing Protein L (ACTIGEN, BioVision) to Series S Sencor Chip CM5 (GE Healthcare), or chips produced by immobilizing Protein A/G (Thermo Scientific) to Series S Sencor Chip CM5 (GE Healthcare) were used. Antibodies of interest were captured onto these chips, and allowed to interact to each FcγR diluted with running buffer. To regenerate and repeatedly use the chip, the antibodies captured onto the chip were washed off by reacting 10 mM glycine-HCl, pH 1.5.

| Binder | Kd [nM] |
| --- | --- |
| B1 | 1.5 |
| B2 | 1.4 |
| B3 | 2 |
| B4 | 1.8 |
| B5 | 4.2 |

The binders below were run against T2, FcgRIIaR (assay: SPR (Biacore), antibody captured, FcgR as analyte).
Protocol: as §2

| Binder | Kd [nM] |
| --- | --- |
| B1 | 19 |
| B2 | 26 |
| B3 | 29 |
| B4 | 40 |
| B5 | 31 |

Each binder was assayed against T3, FcgRIa (assay: SPR (Biacore), antibody captured, FcgR as analyte).
Protocol: as §2

| Binder | Kd [nM] |
| --- | --- |
| B1 | 0.38 |
| B2 | 0.23 |
| B3 | 0.25 |
| B4 | 0.12 |
| B5 | 0.066 |

These binders were tested against T4, FcgRIIaH (assay: SPR (Biacore), antibody captured, FcgR as analyte).
Protocol: as §2

| Binder | Kd [nM] |
| --- | --- |
| B1 | 26 |
| B2 | 65 |
| B3 | 57 |
| B4 | 57 |
| B5 | 22 |

What follows are binders tested against T5, FcgRIIb (assay: SPR (Biacore), antibody captured, FcgR as analyte).
Protocol: as §2

| Binder | Kd [nM] |
| --- | --- |
| B1 | 150 |
| B2 | 110 |
| B3 | 160 |
| B4 | 280 |
| B5 | 200 |

The binders below were run against T6, FcgRIIIaV (assay: SPR (Biacore), antibody captured, FcgR as analyte).
Protocol: as §2

| Binder | Kd [nM] |
| --- | --- |
| B1 | 0.32 |
| B2 | 0.19 |
| B3 | 0.22 |
| B4 | 0.4 |
| B5 | 1 |
